Measured values: IntAct's records for PubMed 30017192

How the values were obtained:
kapca_human PRKACA = kapca_human PRKACA (UniProt P17612)
kpca_human PRKCA = kpca_human PRKCA (UniProt P17252)

effect of a mutation on the interaction (kapca_human PRKACA): with no effect | effect of a mutation on the interaction (kpca_human PRKCA): with no effect
Substance: Serine/threonine-protein kinase pim-1 (Homo sapiens), P11309-2 K158R
